For 1 substance, relative Po of ASI(+)RyR1 channels in lipid bilayers, 10 nM β1a (50 nM also tested, number not given), cis 10 μM Ca2+, no ATP, relative Po of ASI(−)RyR1 channels in lipid bilayers, 10 nM β1a (50 nM also tested, number not given), cis 10 μM Ca2+, no ATP and relative Po of WT RyR1 channels in lipid bilayers, 10 nM to 100 nM β1a (1.8-fold results are on record in article PMC4510890.

The target in test [1] is recombinant rabbit ASI(+)RyR1 (rabbit) (UniProt P11716).
Test [2] shares this target. The source holds these as a separate data set.

With “dihydropyridine receptor β1a subunit (from UniProt P19517 1-524) (natural protein)”, in test [1], the relative Po of ASI(+)RyR1 channels in lipid bilayers, 10 nM β1a (50 nM also tested, number not given), cis 10 μM Ca2+, no ATP is 4.4 fold and the relative Po of ASI(−)RyR1 channels in lipid bilayers, 10 nM β1a (50 nM also tested, number not given), cis 10 μM Ca2+, no ATP amounted to 2.3 fold. In addition, the relative Po of WT RyR1 channels in lipid bilayers, 10 nM to 100 nM β1a (1.8-fold at 10 nM, 1.9-fold at 100 nM), cis 10 μM Ca2+ and 2 mM ATP in test [2] turned out to be 1.9 fold.
